Experimental data from a protein production outcome set (Wang et al. 2014).

Test: label from the status in PepcDB records

Sequence	protein production
MILQSTSLFCKYINNCRYINREIVATLKASPQGLARIKQARSDRGWSVDDFRWLELASEILGVCWQENGVLAAGISEGTWKRFLAGKQAINAEAFKAYCQVLGLNWEEVQEGGRTKERKDTGTSRQEKFLSSSHPHTDWGEAPDVSIFYGRSEELDTVKRWVTQENCRLITLLGMGGIGKTTLSVKLAQEIINSEKIYLSQSPEYIIWRSLRNAPPVEDILAELIQFLSGQQETNLSNHLQGRISLLLKNLRSSRCLIILDNAESILQAGDRNGRYRAGCEGYGQFLQCIAETSHQSCLILTSREKPQGLAKYEGDSLPVRSLPLTGLQEQEGRELFNVKGKFAASCDQWQVLISRYGGNPLALKIVASSIRDFFDGDVSQFLEVSQQGTFIFDDIRDLLDQQFQRLTTLEREIMYWLAINREPVTLAELQADFVANIPPRELLESLSSLQRRSLIEKSAGGFTQQPVVMEYVSNHLIEQVCEEMREWGLVRSRGAEEQRSRGEKIHTQYKLNAALPLTALSTPLFTTHALIKAQAKDYVRESQISLILQPLINQLITEFGSLENISNCLVHILSRLRGKSPQETGYAGGNVLNLLHHAQVDLSGYDFSGLTVWQAYLQGVNLHDVDFANSDLSCCVFTETLGNILSAAFSPEGQLLATCDTDCHVRVWEVKSGKLLLICRGHSNWVRFVVFSPDGEILASCGADENVKLWSVRDGVCIKTLTGHEHEVFSVAFHPDGETLASASGDKTIKLWDIQDGTCLQTLTGHTDWVRCVAFSPDGNTLASSAADHTIKLWDVSQGKCLRTLKSHTGWVRSVAFSADGQTLASGSGDRTIKIWNYHTGECLKTYIGHTNSVYSIAYSPDSKILVSGSGDRTIKLWDCQTHICIKTLHGHTNEVCSVAFSPDGQTLACVSLDQSVRLWNCRTGQCLKAWYGNTDWALPVAFSPDRQILASGSNDKTVKLWDWQTGKYISSLEGHTDFIYGIAFSPDSQTLASASTDSSVRLWNISTGQCFQILLEHTDWVYAVVFHPQGKIIATGSADCTVKLWNISTGQCLKTLSEHSDKILGMAWSPDGQLLASASADQSVRLWDCCTGRCVGILRGHSNRVYSAIFSPNGEIIATCSTDQTVKIWDWQQGKCLKTLTGHTNWVFDIAFSPDGKILASASHDQTVRIWDVNTGKCHHICIGHTHLVSSVAFSPDGEVVASGSQDQTVRIWNVKTGECLQILRAKRLYEGMNITGVTGLTKATIFTLQALGALR	failed
MILSLCCLGSWPAILTLLERRGRLPQHTFLDFATANLLAAIVIAFSLGEIGKSTFLKPDFTTQLPQDNWPSVLLAVAGGVLLSIGNLATQYAFAFVGLSVTEVITASITVVIGTTLNYFLDNKINKAEILFPGVGCFLIAVFLGAAVHASNAADVKEKLKSLPSEDLYSSIENGEDKPEIEKTDVESQEKLAEKAKAGTAGFYVELENKRAIKVFGKSIMIGLFITLFAGISLSLFSPAFNLATNDQWSTLPKGVPKLVVYTAFFYFSIAGFLISLILNLIFLYRPMVGLARSSLKKYIYDSKGRGWAVFAGFLCGFGNGLQFMGGQAAGYAAADSVQALPLVSTFWGIVLFGEYRKSSKRTYALLVSMLAMFVAAVAILMASSGHRK	failed
MILTYHNMYYYQNESRDIAAALLIMTLAFFILLNGLGFYGLLSLIYLAIAFLVVVTAFLFHELAHRAVARRLGAVAFFKLWPIGAFLALITSLFHFLFAAPGAVEFAGVYDNESQGKIALAGPATNIIIGIITYILSIFSLGIVHYVLYYVGALNLWFALFNMIPIPPLDGSKVFYWKGSIFAGVFVFTIIMNIVDGFLLHII	failed
MILVPIDISDKEFTERIISHVESEARIDDAEVHFLTVIPSLPYYASLGMAYTAELPGMDELREGSETQLKEIAKKFSIPEDRMHFHVAEGSPKDKILALAKSLPADLVIIASHRPDITTYLLGSNAAAVVRHAECSVLVVR	not failed
MIMANWQSIDELQDIASDLPRFTHALDELSRRLGLDITPLTADHISLRCHQNVTAERWRRGFEQCGELLSENMINGRPICLFKLHEPVQVAHWQFSIVELPWPGEKRYPHEGWEHIEIVLPGDPETLNARALALLSDEGLSLPGISVKTSSPKGEHERLPNPTLAVTDGKTTIKFHPWSIEEIVASEQSA	not failed
MIMFNYQQTSQSCVKCGKCIPSCTIYNIHPDEVTSPRGFIDLLGAYQRGELELDKNAKDIFEKCFLCTNCTYVCPNLLPTDQVIENVRAEIAQKFGIAWFKRAYFFLLRNRWLMDWGFALGSVFTPLLFKNLPKHQSVKPRFKLPLIGERVFMWLRFKSFMESYPEETLNSDRENPRRVAIFIGCLANYNYTKIGDSLMEILKELRIDAFIPKKQQCCGAPAYFTGDFPTVDKLIKQNVTYFESFIDEVEAIIIPEATCSAMILEDWERFMHNQPEWRERIARLLPKIFIASDWLYHKTDLLKRLEALSVKMDKSITYHDPCHARKVLGVFKEPRALLGANYKIVEMSDPNQCCGFGGVTLQTEKYQYSKKVGIAKTKMIQETGAKIVSAECSACRMQLTNALDHEKIDVEFAHPLELIAEALKARG	failed
MINEFFKETVWEEAWKEDQQTAVNKMKKAGMDKVHHFDLRAKSFNEQAFNEEGRKRTKRIMKWLEGQGVTFKDTSILDIGAASGGFTVPFAERGAEVTAVEPSLPLVELMKENITGITNGKVKIVAEPFEDIDIQAKGWGNAFDFVFVSMCPAIADWESVKRVLSCARQFCYISLSAGSREHSLLNEIWPLVSDQPLKNEHSEMAYLLHLLFLKGYTYESLVTREMKTREVSRETALNEVMDMLRMFGLPADDRNRKITAAYLERTYPNDKVEIRQGGRFGKVLIRLQNQNMYMNS	failed
MINEHYIPQAVILANGEYPAHELPLRLLAEAQFVVCCDGAANEYISRGHTPDVIIGDGDSLLPEYKKRFSSIILQISDQETNDQTKAVHYLQSKGIRKIAIVGATGKREDHTLGNISLLVEYMRSGMEVRTVTDYGTFIPVSDTQSFASYPGQQVSIINFGAKGLKAEGLFYPLSDFTNWWQGTLNEAIADEFTIHCTGEYLVFLAY	not failed
MINIVIVSHSKHLAEGIEALANQMLNPTHCRLAIAAGVDDEAHPIGTDAVKIMTAIESLAEADAIIVMMDLGSAILSTETAIELLDTELAQKVTLCSAPLVEGTLAAVVAASSGASLEKVLEEANHALTPKKMQLGENMGGSEPNDVTPSIQMHGKEAHWVVKNPHGLHVRPAATLVELLSKFRADYQLIKGDRRINPLSLNQLSLIQIRQGDEITLIASGEQENEAIDAFLALAKQGFGEALPDELTEQSLTGTLVPASPIKGPAFIWHELELAPIENLSAPLDSTIQIEQFNQAIKDTLNDLKHYAEKANHTLGEQIGAIFNGHIMMLDDEELLTNVIDRIKTDNVSAQQSWTNEMKERIQLYRTLSDPYLRARELDLRDLRNQVLYHLQQKTPPKFTPSQPSILVAKELFPSTLIQFDATQLLAITLAEGDSCSHSAIIATQMGLPMLVHLGDGLLKIKEAQELTLDLKSSELIIGSIN	failed
MINKDTQLCMSLSGRPSNFGTTFHNYLYDKLGLNFIYKAFTTQDIEHAIKGVRALGIRGCAVSMPFKETCMPFLDEIHPSAQAIESVNTIVNDNGFLRAYNTDYIAIVKLIEKYHLNKNAKVIVHGSGGMAKAVVAAFKNSGFEKLKIYARNVKTGQYLAALYGYAYINSLENQQADILVNVTSIGMKGGKEEMDLAFPKAFIDNASVAFDVVAMPVETPFIRYAQARGKQTISGAAVIVLQAVEQFELYTHQRPSDELIAEAAAFARTKF	not failed
MINMCYNFENVKKAYEDQLKNYIKNSLIPNLSSHANNEVVKISMKKLANLGFGYLVDSTLSSITGYYKVRDWIEELLKEELQKSGENKCCNIVLCDYPEEFEISMREIPYYVNKVVKFNGVIISASYPCVLSKKHLYICPKCGRIKEVYFSELFWDDKVFCEFCGGKMEFANVMDYENFQELVVQDLSDESEYYGIEKNPIVWYCGAKPYYFGHVKITGIVREVPRSSKSRIYELIVQAINVEKLGVEKSLINLTEEDVKNIKKVAKRGDIIDILADILIPPLLCDDAIVRKAILIQQIAPYLEDIGKINILLVTEVGIDKTAILKRIGNIPGNNFINIAALKEEELATPYDKRSNILGKFYTVCGGVIPRTLGVLCIDDFNENNKLSTKLSEAFERNVLTTNKGSFYCVPAECSFLCACYPKTKFRKFDQKKSIIKQIGISSILLKNFDLIFPIRDIPDKDRDEEVAKYIFLKYINSDNEEIEGYDYVFVDVGGEKIKIDFEFLKKYVVYSRQITPKITDEVIEKISNWYDEMRKNHYITAKQLNTVIKLSIAVARAKLKECVDEDDVKEAIDIIMHYLKQVVYNPKKGIIDVILLYKNKT	failed
MINYKKKIAALMLLATCLSGCSYDLKDLQHLKSKSSFDTVGIKILCEHKKYSEAMKQIDDYLKKHPDDKVALSEKGYVLVSQDKNEDGLLVLLKVNDKYPNYDVTLNNISWAYNNLKMYKLANKYADLALKQTPNSSEELSNKGTALFGLKNYKAAEKYYDKALEKKSTDKVAIWGKALSLYKEKSYSKSLTYFKKYVIVDSSDIQASYYMEKCYIALNDVDGAIKEFKSDIIADPKNKGNYFALGDMYRKKTDYSSALSCYDTLSEIDPEDPEIYFQKAICLVKSGDKDGACENLKLTLSYDSEYVSDIEEEPAFDALKDYDKFKEILNSK	failed
MIPIVDSRIGAYLDGLLPEADPVVAAMEQIARERNIPIVDRQTGRLLYLLARIKQPQLVVVPGDGLGCASWWFARAISISSRVVMIDPDRDNVEHARRMLHDNGLIDRVELQVGDPLGIAAGQRDIDILFMDCDVFNGADVLERMNRCLAKNALLIAVNALRRGSVAESHEDPETAALREFNHHLSRRRDFFTTIVPVGNGVLLGYRLS	not failed
MIPPYREHPLREVLINELHARPSETIEAPVRLSHLAVLTGEITDPSLDHLGLLCARMGETVPAKGATRFNANLGGLGLQFERHTEFCTYTFQRRGRTGDLPFDQPALDMVPPDWLATLPGQVLSAVHLVVEPKDTPEYSIEELSIRHFAGNPVVGSAVGGGAAFAYSDLRLHDDRCLRMLIRDVDLNPRHAGRLVQRLLELNTYRALALLALPMARESSPGLRRIDMVLAHVAARMADPNGVDSDAELLSELSNLTAEVESLAAANSYRIAATRAYHALVQRRLEELREVRLDGVVTFGAFMDRRLTPAMATVDSVSERIESLSERGARVASLLRARVEVDLQAQNKRLLESMNRRARIQLRLQEAVEGLSVVAISYYLVGLVGYMAKGVSGAGVEVKESVVTAIAVPVIVASVWLVLRRAKRAMLNRAD	failed
MIQKQHESKLEVGQTFPVTIKRLGINGEGVGYFKRQVVFIPGALPGEEVVAETTKIQRGFAEAKVKKVRKASPHRVKAPCPVYEECGGCQLQHLDYKEQLNQKRDIVVQAFEKYMKNSMEEKIRPTLGMENPWHYRNKSQLQVGRKDEKVITGLYKQNSHQLIDIAHCMIQHKATNEATKVVRRILEKLNVSIYNEKKQKGLVRTIVTRTAVQTGEVQVTLITTKEELPNKEQFIAEVQKQMPAVKSIMQNVNWRKTSVIFGDKTFKLAGKEVIQETLGDLSFELSARAFFQLNPEQTVVLYNEAKKAAALTGNEKIVDAYCGVGTIGLWLANDAAEVRGMDVIPEAIADARKNAKRHGFTNTKYEAGKAEQWLPKWVKEGWRPDVIVVDPPRTGCDDKLLETILKVKPKQVVYVSCNPSSLARDVQALMKSYEVEYVQPVDMFPHTAHVENVVKLTLK	failed
MIQQRANFDWMLKELADGVPGVHQIVVLSADGLRIARYGGDPDAADRVAAACAGLQSLAGAVATEIPHSDGKMRMVIIEMDGAYFYMMAAGPNAYLAVLSDVTAEAGLMSNRMRDLVVRIGAHLTSPPRRNGQTV	failed
MIRKLNKKDQEILKTLGSIWLNSNIATHNFINEEYWVNNYDNVIESFKTAEIIVYEKNTEIIGFCGLIDNYIAGMFIKKSSRNQ	failed
MIRLATKNDLLSITQLVKEAKQIMEEFNNNQWDDEYPAKEHFEEDIENKTLYVLDVDHTIYGFIVIDQNQSEWYDDIDWPVNRNGAYVIHRLAGSKQYKGAATELFQFAIDLANEHDIHVILTDTFALNKPAQGLFEKFGFTKVDEIEIDYHPFDRGAPFYAYYKNI	failed
